Experimental data as given in patent US20100099142.

B1: hexa-His-Xa-Met-AP M206A, Q233A (protein)
chain: MAISIKTPEDIEKMRVAGRLAAEVLEMIEPYVKPGVSTGELDRICNDYIVNEQHAVSACLGYHGYPKSVCISINEVVCHGIPDDAKLLKDGDIVNIDVTVIKDGFHGDTSKMFIVGKPTIMGERLCRITQESLYLALRMVKPGINLREIGAAIQKFVEAEGFSVVREYCGHGIGRGFHEEPQVLHYDSRETNVVLKPGMTFTIEPAVNAGKKEIRTMKDGWTVKTKDRSLSAAYEHTIVVTDNGCEILTLRKDDTIPAIISHDE
B2: Met-AP (M206A) (protein)
chain: MAISIKTPEDIEKMRVAGRLAAEVLEMIEPYVKPGVSTGELDRICNDYIVNEQHAVSACLGYHGYPKSVCISINEVVCHGIPDDAKLLKDGDIVNIDVTVIKDGFHGDTSKMFIVGKPTIMGERLCRITQESLYLALRMVKPGINLREIGAAIQKFVEAEGFSVVREYCGHGIGRGFHEEPQVLHYDSRETNVVLKPGMTFTIEPAVNAGKKEIRTMKDGWTVKTKDRSLSAQYEHTIVVTDNGCEILTLRKDDTIPAIISHDE

Target: Met-hIL-21, Q9HBE4
Sequence (Q9HBE4 whole entry, looked up): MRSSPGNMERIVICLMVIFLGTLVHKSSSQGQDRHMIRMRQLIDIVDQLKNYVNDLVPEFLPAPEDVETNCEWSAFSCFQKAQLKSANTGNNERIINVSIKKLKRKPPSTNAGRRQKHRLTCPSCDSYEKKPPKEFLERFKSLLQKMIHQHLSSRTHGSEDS

Protein	Met-free hIL-21 generated (removal of initiator Met, enzyme activity)	cleavage of Met-hIL-21 in 44 h (enzyme activity)	removal of initiator Methionine, assayed by MALDI-TOF
B1	˜65% Met-free hIL-21	In 44 h. more than 90% cleavage of Met-hIL-21 could be observed	removal of Methionine from Met-IL21 below detection limits of Met-IL21 could be performed
B2	–	–	removal of Methionine from Met-IL21 below detection limits of Met-IL21 could be performed
